Copies/cell, binding sites per cell (binding sites per cell) and % saturation of the surface receptor data for one substance are collected here from patent publication US7029861B1, “LPS-response gene compositions and methods” (Board of Regents, The University of Texas System, priority 1998, dated 2006).

The target in test [1] is flag-tagged Tlr4^Lps-d cytoplasmic domain construct, residues 630-835 (P712H) (mouse) (UniProt Q9QUK6). Kind of test: equilibrium specific binding of M2 at a fixed concentration to RAW 264.7 clones, mean of 8 clones.
For test [2], the target named is flag-tagged Tlr4^Lps-n cytoplasmic domain construct, residues 630-835 (mouse) (UniProt Q9QUK6). Kind of test: equilibrium specific binding of M2 at a fixed concentration to RAW 264.7 clones, mean of 7 clones.
Test [3] has as its target flag-tagged Tlr4^Lps-d, residues 22-835 (P712H), expressed in RAW 264.7 cells (mouse) (UniProt Q9QUK6). Kind of test: saturation isotherm of 125I-M2 on transfected RAW 264.7 cells, nonlinear regression.
In test [4] the target is flag-tagged Tlr4 ectodomain construct, residues 22-660 (no cytoplasmic domain) (mouse) (UniProt Q9QUK6). The experiment in a line: equilibrium specific binding of M2 at a fixed concentration to RAW 264.7 clones, mean of 9 clones.
Test [5] deals with flag-tagged Tlr4^Lps-n, residues 22-835, expressed in RAW 264.7 cells (mouse) (UniProt Q9QUK6). The experiment in a line: equilibrium specific binding of M2 at a fixed concentration to RAW 264.7 clones, mean of 10 clones.
The target of test [6] is flag-tagged Tlr4^Lps-d, residues 22-835 (P712H), expressed in RAW 264.7 cells (mouse) (UniProt Q9QUK6). The test is described as above.
Test [7] shares this target. The experiment in a line: saturation isotherm of 125I-M2 (50 ng/ml to 20 ug/ml) on transfected RAW 264.7 cells.

Turning to “monoclonal antibody M2 (obtained from Sigma)”, the Copies/cell stood at 9900 copies/cell in test [1]; 12000 copies/cell in test [2]; 14000 copies/cell in test [4]; 21000 copies/cell in test [5]; 20000 copies/cell in test [6]. The substance also came in with a binding sites per cell (binding sites per cell) in test [3] of 28100. The substance further displayed a % saturation of the surface receptor at the highest antibody concentration in test [7] of 56.4%.
